In patent US9217013B2, “Treatment of amyloidoses using myelin basic protein and fragments thereof” (The Research Foundation for the State University of New York, priority 2008, dated 2015):

Experiments:
[1] = biological target: T1, fibrillar Dutch-type Aβ-(1-40) (Homo sapiens, UniProt P05067, E693Q); experiment: Solid-phase binding of GST-AβPP-(18-119) proteins to fibrillar Dutch-type Aβ; settings: for binding to fibrillar Aβ compared with wild-type GST-AβPP-(18-119): alanine substitution mutants
T1 construct: made in house; host or cells: chemical synthesis (solid-phase Fmoc)
Method: (§1) Aβ peptides or amylin were assembled into fibrils as described above. […] Two μg of each fibrillar Aβ peptide, fibrillar amylin, or ovalbumin in 100 μl of phosphate-buffered saline (PBS) were dried in a 96-well microtiter plate (Corning, Cambridge, Mass.) overnight at 37° C. The wells were rinsed with PBS three times and blocked with 100 μl per well PBS containing 1 mg/ml bovine serum albumin (BSA) for 1 hour at room temperature. After rinsing three times with PBS, known concentrations of biotinylated sAβPPα in PBS containing 0.1 mg/ml BSA were incubated in triplicate (100 μl per well) for 1 hour at room temperature. After rinsing the wells with PBS three times, 100 μl of streptavidin conjugated to horseradish peroxidase in PBS containing 0.1 mg/ml BSA (1:800) was added for 1 hour at room temperature. The binding of biotinylated sAβPPα was detected using the colorimetric substrate o-phenylenediamine dihydrocholride as described by the manufacturer (InVitrogen). Briefly, the substrate was diluted in buffer (0.1 M sodium citrate, pH 4.5) to a final concentration of 1 mg/ml. H202 was added to a final concentration of 0.012% immediately before 100 μl of the substrate was added to each microtiter well. The solution was developed for =30 min at room temperature and quenched by the addition of 50 μl of 4N H2SO4 to each well. The conversion of the colorimetric substrate was measured at a wavelength of 490 nm using a Molecular Dynamics Vmax kinetic plate reader (Sunnyvale, Calif.).
(§2) Bound secondary antibody was detected using the colorimetric substrate as described above.
However, this small peptide was not nearly as effective as the larger, recombinantly expressed AβPP-(18-119) in binding to fibrillar Aβ. Therefore, alanine-scanning mutagenesis studies of the AβPP-(105-119) sequence within AβPP-(18-119) were performed to further identify key epitopes important in facilitating its binding to fibrillar Aβ. Alanine residues were introduced from Cys^105 through Cys^117 of AβPP-(18-119) by site-directed mutagenesis of the AβPP-(18-119) cDNA. Each mutant AβPP-(18-119) cDNA was expressed as a GST fusion protein and purified, and the concentrations were carefully determined by quantitative immunoblotting as described in “Experimental Procedures”.

[2] = biological target: T2, fibrillar wild-type Aβ-(1-42) (Homo sapiens, UniProt P05067); experiment: Solid-phase binding of GST-AβPP-(18-119) proteins to fibrillar wild-type Aβ-(1-42)
T2 construct: made in house; host or cells: chemical synthesis (solid-phase Fmoc)
Method: as §1, with “H202 was added to a final concentration of 0.012% immediately before 100 μl of the substrate was added to each microtiter well. The solution was developed for =30 min at room temperature and quenched by the addition of 50 μl of 4N H2SO4 to each well.” left out
as §2

fibrillar amylin peptide = biological target: T3, fibrillar amylin peptide (Homo sapiens, UniProt P10997); experiment: Solid-phase binding of GST-AβPP-(18-119) proteins to fibrillar amylin
T3 construct: Amylin peptide was obtained from Bachem (San Carlos, Calif.); purchased Bachem (San Carlos, Calif.)
T3 sequence (P10997 34-70 limits assumed): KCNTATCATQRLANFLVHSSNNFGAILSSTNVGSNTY
Method: as §1, with “H202 was added to a final concentration of 0.012% immediately before 100 μl of the substrate was added to each microtiter well. The solution was developed for =30 min at room temperature and quenched by the addition of 50 μl of 4N H2SO4 to each well.” left out
as §2

fibrillar Aβ = biological target: T4, fibrillar Aβ (Homo sapiens, UniProt P05067, E693Q); experiment: Solid-phase binding assay, competition against biotinylated sAβPPα
T4 construct: made in house; host or cells: chemical synthesis (solid-phase Fmoc)
Method: Aβ peptides or amylin were assembled into fibrils as described above. […] Two μg of each fibrillar Aβ peptide, fibrillar amylin, or ovalbumin in 100 μl of phosphate-buffered saline (PBS) were dried in a 96-well microtiter plate (Corning, Cambridge, Mass.) overnight at 37° C. The wells were rinsed with PBS three times and blocked with 100 μl per well PBS containing 1 mg/ml bovine serum albumin (BSA) for 1 hour at room temperature. After rinsing three times with PBS, known concentrations of biotinylated sAβPPα in PBS containing 0.1 mg/ml BSA were incubated in triplicate (100 μl per well) for 1 hour at room temperature. After rinsing the wells with PBS three times, 100 μl of streptavidin conjugated to horseradish peroxidase in PBS containing 0.1 mg/ml BSA (1:800) was added for 1 hour at room temperature. The binding of biotinylated sAβPPα was detected using the colorimetric substrate o-phenylenediamine dihydrocholride as described by the manufacturer (InVitrogen). Briefly, the substrate was diluted in buffer (0.1 M sodium citrate, pH 4.5) to a final concentration of 1 mg/ml. H202 was added to a final concentration of 0.012% immediately before 100 μl of the substrate was added to each microtiter well. […] The conversion of the colorimetric substrate was measured at a wavelength of 490 nm using a Molecular Dynamics Vmax kinetic plate reader (Sunnyvale, Calif.). […]

[3] = biological target: T5, HCSM cell surface fibrillar Aβ (Homo sapiens, UniProt P05067, E693Q); experiment: Endogenous sAβPPα binding to fibrillar Aβ on HCSM cell surface; type: cell-based; settings: AβPP-(105-119) at higher concentrations
T5 construct: made in house; host or cells: chemical synthesis (solid-phase Fmoc)

Aβ = experiment: Recombinant MBP regions tested for ability to bind Aβ and inhibit fibrillogenesis; type: binding; settings: Aβ form not stated
Method: (§3) Using recombinant methodology to express and purify regions of the 18.5 kDa human MBP protein and test their abilities to bind Aβ and inhibit fibrillogenesis, cDNAs were prepared for the following regions of MBP shown in FIG. 3. The cDNAs for MBP fragments were cloned into pTYB11 plasmids containing an ampr gene and transformed into competent E. coli BL21 DE3 cells. Expression of cDNAs in this vector results in a fusion protein containing a chitin binding domain (CBD) as well as a self-cleavable intein protein from S. cerevisiae. CBD-Intein-MBP fusion proteins were captured on chitin beads from the resulting cell lysates. MBP protein fragments were eluted by inducing the cleavage between the C-terminus of the intein and the N-terminus of MBP by exposure to dithiothreitol. […] MBP was further purified by cation exchange chromatography on CM52 resin, resulting in a >95% pure protein preparations. Each of the four MBP fragments were tested for binding to Dutch/Iowa Aβ40 and wild-type Aβ42 by surface plasmon resonance (FIG. 4).
Such a motif, KRGX1X2X3X4X5X6HP (SEQ ID NO:1), was found in MBP 33-64 and in AβPP 54-64. Specifically, the motif in MBP spans residues 54-64. […]

HCSM cells = experiment: HCSM cell viability (live/dead assay) after Dutch-type Aβ-(1-40); type: cell-based, human; settings: 25 μM Dutch-type Aβ-(1-40), 1 μM protein, 6 days at 37° C.
Text: Primary cultures of HCSM cells were established and characterized. Two lines of HCSM cells were used in these studies. One was derived from a AD patient and the other was derived from a person control. All HCSM cells were used between passages 4-7 and maintained in 24-well tissue culture dishes with Dulbecco's […] containing 10% fetal bovine serum (Gemini Bio-Products, Calabasas, Calif.), non-essential amino acids, and antibiotics (Invitrogen). For experiments, near-confluent cultures of HCSM cells were placed in serum-free medium containing 0.1% BSA, non-essential amino acids, and antibiotics overnight prior to treatment. Freshly solubilized Dutch-type Aβ-(1-40) at a final concentration of 25 μM was added to the cultures in serum-free medium and incubated at 37° C. for 6 days. Cells were routinely viewed and photographed using an Olympus IX70 phase-contrast microscope. Cell viability was quantified using a fluorescent live/dead cell assay following the manufacturer's protocol (Molecular Probes, Eugene, Oreg.). The number of live and dead cells were counted from several fields (n=4) from at least three separate wells for each experiment.
Incubation of HCSM cells with pathogenic Dutch-type Aβ-(1-40) leads to cell death. […]

[4] = biological target: Dutch/Iowa CAA mutant Aβ40 (Aβ40DI) (Homo sapiens, UniProt P05067, D694N/E693Q); experiment: Surface plasmon resonance binding to immobilized Dutch/Iowa Aβ40
Method: All runs were performed on a Biacore 2000 instrument using 10 mM HEPES (pH 7.4), 150 mM NaCl, 3 mM EDTA, and 0.005% (v/v) Tween 20 as running buffer and diluent. Streptavidiri was conjugated to the surface of three flow cells of a CM5 chip at 10 μl/min using amine coupling chemistry to a final average response level of 1890.2 response units. N-terminally biotinylated Aβ peptides were resuspended in Me2SO to 2.5 mM and serially diluted to 13 nM immediately before application. Biotinylated Aβ40WT and Aβ40DI were bound to individual flow cells at 10 μl/min to achieve an average relative response level of 157.1 response units, leaving flow cell 1 as reference. […] The resultant Rmax of these surfaces was ˜700 response units with MBP as analyte. Purified MBP was passed over all four flow cells at 5, 10, 25, 50, and 100 nM at a flow rate of 30 μl/min for kinetic measurements. […] Surfaces were regenerated with 0.2 M glycine (pH 2.0) and 150 mM NaCl between runs. The resulting sensorgrams were analyzed by BIAanalysis software. Triplicate concentration series were used for each surface.
as §3

Aβ40DI = Aβ40DI (Homo sapiens, UniProt P05067, D694N/E693Q); experiment: Thioflavin T fluorescence assay of Aβ40DI fibril formation; type: biochemical; settings: 12.5 μM Aβ40DI, 1.56 μM protein, PBS, 37° C.
Method: FIG. 16 Thioflavin T analysis of inhibition of CAA mutant Aβ fibril formation by MBP. Aβ40DI at a concentration of 12.5 μM in PBS in the absence (□) or presence of 1.56 μM MBP(□) or bovine a-lactalbumin (Lalb; □) as a control. At specific time points, aliquots were collected from each sample and analyzed by thioflavin T binding and fluorescence to determine fibrillar assembly. Data represent the means±S.D. of triplicate samples. A.U., arbitrary units.
The Aβ B binding properties of the exemplary fragments of MBP described herein were determined in a thioflavin T fluorescence assay as follows: Lyophilized Aβ peptides were first resuspended with Me2SO to 2.5 mM, diluted to 12.5 μM in PBS, and then incubated at 37° C. with rocking either alone or with 1.56 μM MBP or bovine α-lactalbumin. Control samples containing 0.5% Me2SO and 1.56 μM MBP or lactalbumin in PBS were also included. At each time point, 100 μl samples of each reaction were placed in a 96-well microplate in triplicate, and 5 μl of 100 µM thioflavin T was added. The plate was mixed and incubated at 22° C. in the dark for 10 min. Fluorescence was measured at 490 nm with an excitation wavelength of 446 nm in a SpectraMax spectrofluorometer (Molecular Devices, Sunnyvale, Calif.) using SoftMax Pro control software. It is apparent that the method enables persons of skill in the art to determine the binding properties of MBP, variants thereof, and fragments thereof for any Aβ-peptide, including mutants thereof.

P109A
binding to fibrillar Aβ compared with wild-type GST-AβPP-(18-119) [1]: little or no effect

C117A mutant GST-AβPP-(18-119): GST-AβPP-(18-119) with alanine substitution at Cys117
binding to fibrillar Aβ compared with wild-type GST-AβPP-(18-119) [1]: markedly diminished binding | binding to fibrillar Aβ compared with wild-type GST-AβPP-(18-119) ([1]; listed as C117A): substantially affects

I113A: GST-AβPP-(18-119) with alanine substitution at Ile113
binding to fibrillar wild-type Aβ-(1-42) compared with wild-type GST-AβPP-(18-119) [2]: considerably reduced binding | binding to fibrillar Aβ compared with wild-type GST-AβPP-(18-119) [1]: markedly decreased binding | binding to fibrillar Aβ compared with wild-type GST-AβPP-(18-119) ([1]; listed as Ile^113): highly diminished | binding to fibrillar amylin peptide compared with wild-type GST-AβPP-(18-119) (fibrillar amylin peptide): considerably reduced binding

AβPP-(105-119): synthesized 15 amino acid peptide spanning residues 105-119 of AβPP (CKTHPHFVIPYRCLV)
competition of biotinylated sAβPPα binding to fibrillar Aβ (fibrillar Aβ; 1 mM peptide): ≈ 80% | inhibition of endogenous sAβPPα binding to HCSM cell surface fibrillar Aβ [3]: partially diminish

MBP 50-64: MBP residues 50-64, RGAPKRGSGKDSHHP (SEQ ID NO: 51)
abilities to bind Aβ and inhibit fibrillogenesis (Aβ): carries all the binding activity

GST-AβPP-(18-119): glutathione S-transferase fusion protein of AβPP residues 18-119, wild-type
Aβ-induced HCSM cell death (HCSM cells): < 10% | inhibition of endogenous sAβPPα binding to HCSM cell surface fibrillar Aβ [3]: completely inhibited

AβPP-(102-116): synthesized overlapping 15-mer peptide of AβPP residues 102-116 (RKQCKTHPHFVIPYR)
competing activity of overlapping 15-mer peptides (fibrillar Aβ; data not shown): approximately half that of AβPP-(105-119)

H110A mutant GST-AβPP-(18-119): GST-AβPP-(18-119) with alanine substitution at His110
binding to fibrillar wild-type Aβ-(1-42) compared with wild-type GST-AβPP-(18-119) [2]: considerably reduced binding | fibrillar Aβ binding compared with wild-type GST-AβPP-(18-119) [1]: < 10% | binding to fibrillar Aβ compared with wild-type GST-AβPP-(18-119) ([1]; listed as H110A): markedly decreased binding | binding to fibrillar Aβ compared with wild-type GST-AβPP-(18-119) ([1]; listed as His^110): highly diminished | prevention of Aβ-induced HCSM cell death (HCSM cells): incapable of preventing the cytotoxic effects | binding to fibrillar amylin peptide compared with wild-type GST-AβPP-(18-119) (fibrillar amylin peptide): considerably reduced binding

F111A
binding to fibrillar Aβ compared with wild-type GST-AβPP-(18-119) [1]: little or no effect

B1: MBP1 ΔKRG: MBP1 mutant with alanine substitutions in the KRG region (residues 54-56) (protein)
chain: MASQKRPSQRHGSKYLATASTMDHARHGFLRPHRDTGILDSIGRFFGGDRGAPAAASGKDSHHP
binding to Dutch/Iowa Aβ40 (Aβ40DI) by surface plasmon resonance [4]: do not bind | inhibition of Aβ40DI fibril assembly (thioflavin T) (Aβ40DI): lack fibril inhibition

B2: MBP1 ΔHP: MBP1 mutant with alanine substitutions at HP (residues 63-64) (protein)
chain: MASQKRPSQRHGSKYLATASTMDHARHGFLRPHRDTGILDSIGRFFGGDRGAPKRGSGKDSHAA
binding to Dutch/Iowa Aβ40 (Aβ40DI) by surface plasmon resonance [4]: do not bind | inhibition of Aβ40DI fibril assembly (thioflavin T) (Aβ40DI): lack fibril inhibition

B3: MBP1 S57A (protein)
chain: MASQKRPSQRHGSKYLATASTMDHARHGFLRPHRDTGILDSIGRFFGGDRGAPKRGAGKDSHHP
binding to Dutch/Iowa Aβ40 (Aβ40DI) by surface plasmon resonance [4]: does bind
